In US20180312539A1, “METHODS FOR PREPARING HIGH THROUGHPUT PEPTIDOMIMETICS, ORALLY BIOAVAILABLE DRUGS AND COMPOSITIONS CONTAINING SAME” (University of Southern California, priority 2011, published 2018):
Several values for one entry are separate records, joined by “and”; a condition that tells them apart may be missing. Equal entries are not always repeated. *1 amine or outer side, *2 acyl side, *3 side chain or, on linkers, in order; H or OH if unused. Where a SMILES comes first, the peptide text is derived from it. Bridges are numbered along the chain shown (N, C = ends). Where no end group is shown, it is not given here. [ ]: non-standard residue; d: D form. The star is where a group is joined. 5FAM = O=C1OC2(c3ccc(O)cc3Oc3cc(O)ccc32)c2ccc(C(=O)*)cc21; Biotin = O=C1N[C@H]2[C@H](CS[C@H]2CCCCC(=O)*)N1; NMeW = CN[C@@H](Cc1c[nH]c2ccccc12)C(=O)O; Glutaryl = O=C(CCCC(=O)[*:2])[*:1]; NMeNva = CCC[C@H](NC)C(=O)O; NMeA = CN[C@@H](C)C(=O)O

Legend:
[1] = PAMPA (parallel artificial membrane permeability assay); format: in vitro ADME; settings: for Log Pe of peptide (biotinylated): biotin-labeled peptide (number + B), non-reducible biotin; for Log Pe of peptide (biotinylated) / Log Pe of peptide: PBS pH 7.4, 24 hrs; for Log Pe of peptide: unmodified peptide, room temperature; for Log Pe: peptide conjugated to biotin containing a reducible disulfide (RB), acceptor well reducing (10 mM DTT)
Method: PAMPA assays were set up following manufacturer's instructions. Briefly, 1% phosphatidyl choline (Sigma) was dissolved in dodecane (Sigma) at 65° C. for 3 min. The membrane was applied to each well as per manufacturer's instructions. […] 100 μL of sample was put into each donor well. The acceptor wells contained 300 μL of a 5% DMSO in PBS solution. Passive diffusion was allowed to occur at room temperature for 24 hrs. […] Absorbance at 215 nm was monitored. The area under the peptide peak was integrated.
The acceptor well contained 10 mM DTT as a reducing agent. Data was collected after 6, 12 and 24 hrs. Absorbance at 280 nm was analyzed. The following formula was used to calculate Log Pe: […]
Applicants employed a parallel artificial membrane permeability assay (PAMPA) that will allow for the rapid screening of peptide passive diffusion across a phospholipid bilayer. (Schmidt, et al. (2003) J. Millipore Corporation Application Note AN1729EN00.). In this assay, two chambers are separated by a phospholipid bilayer supported on an inert membrane. Applicants chose to initially focus Applicants examination on peptide ligands developed to bind with high affinity to the heterotrimeric G-proteins Gαi1*GDP and Gα12*GDP. Ja, W. W., et al. (2004) Biochemistry 43:9265; Millward, S. W., et al. (2007) ACS Chem. Biol. 2:625; Fiacco, S. et al. (2008) ChemBioChem 9:2200. These ligands included variations in sequence, size, overall charge, and polarity as well as comparing linear and cyclic peptides, end and biotinylation. […] According to classical methods of increasing permeability. Pinski, C. A., et al. (2001) Advanced Drug Delivery Reviews 46:3. Applicants postulated that the removal of hydrogen bond donors by N-methylation should further increase the permeability of this peptide.

[2] = cited from earlier work
Human serum digests = format: in vitro ADME; settings: reconstituted human serum, 37° C
Method: (§1) Delipidated/lyophilized human serum was purchased from Thermo Scientific and reconstituted as per manufacturer's instructions. 250 nmoles of peptide in 50 μLs of sodium phosphate buffer (pH=8.0) with 10% DMSO was added to 1 mL of reconstituted serum and incubated at 37° C. 100 μL aliquots were taken at various time points and quenched in 300 μLs of acetonitrile. Samples were spun down and decanted to remove precipitate followed by dilution in water to 1.5 mLs. Samples were then analyzed by HPLC as described in the protease resistance experiment.
as §1, with “μL” for “μLs”, “mLs.” for “mLs. Samples were then analyzed by HPLC as described in the protease resistance experiment.”
The human serum and human microsome stability of the Gαi1 binding SUPR peptide ([…] (SEQ ID NO: 7)) were compared to the peptides ability to bind to Her-2. Beginning with the human serum analysis, peptides were digested with 95% human serum at 37° C. Analysis was performed by HPLC. […] Therefore, intact peptide is only completely unmodified peptide. Digestions of SUPR, HMP, and PMP are show have lives very similar to SUPR. Digestion of PMP2 is in progress. Without being bound by theory, Applicants theorize that the fitting for HMP may have produced an artificially low half-life.

chymotrypsin = biological target: T1, chymotrypsin (Bos taurus, UniProt P00766); assay: Protease resistance experiment, chymotrypsin digest; format: in vitro ADME
T1 construct: purchased Sigma
Method: Immobilized chymotrypsin and proteinase K purchased from Sigma.
Protease resistance enhancement was then tested.
Towards that end, three peptides were synthesized. […] The effects were dramatic and surprising.

proteinase K = proteinase K (Parengyodontium album, UniProt P06873); settings: immobilized proteinase K, 4° C; for Cyc t1/2: cyclic peptide; for Lin t1/2: linear peptide
Chain of proteinase K (P06873 106-384): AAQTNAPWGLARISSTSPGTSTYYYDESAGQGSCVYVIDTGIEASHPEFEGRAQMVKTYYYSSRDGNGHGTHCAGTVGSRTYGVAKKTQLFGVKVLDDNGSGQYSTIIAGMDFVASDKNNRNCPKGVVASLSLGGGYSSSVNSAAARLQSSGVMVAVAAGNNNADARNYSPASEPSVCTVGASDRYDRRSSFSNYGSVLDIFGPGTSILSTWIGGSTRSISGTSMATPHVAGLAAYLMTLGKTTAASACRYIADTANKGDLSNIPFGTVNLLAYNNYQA
Method: Immobilized chymotrypsin and proteinase K purchased from Sigma. 250 nmoles of peptide in DMSO were added to 50 mM sodium phosphate buffer (pH=8.0) with a final DMSO concentration of 2%. […] The graph was generated by fitting the data to a one phase exponential decay equation (GraphPad Prism 5.0).
Protease resistance enhancement was then tested. The simplest solution for enhancing protease resistance would be the removal of amino acids recognized by protease K and chymotrypsin.
Next the role of each of the N-methyl alanines was analyzed independently. […] For example sequence modifications, including N-methylation would be accomplished one amino acid at a time, walking the peptide from low protease stability to high stability. Whether this is a viable approach for making a peptide like SUPR was investigated. Towards that end, Applicants walked back from SUPR peptide to something closer to cycGIBP, and to determine if there was a gradual decrease in protease resistance. Towards that end, three peptides were synthesized. Two of them contained only one NMA (alanine was substituted for NMA), and the other had no NMA. It was hypothesized that if one could walk back to cycGIBP, then one would expect the loss of a single N-methyl to have some effect on reducing protease resistance, but to still be better than cycGIBP.

[3] = parameters: species or system C57BL6 mice; settings: mouse, in vivo
Method: The following peptides were synthesized for oral administration: […](FAM) (SEQ ID NO: 14), […](FAM)DK(Palmitoleic acid) (SEQ ID NO: 15), and […](FAM) (SEQ ID NO: 16), wherein FAM is a lysine derivative containing fluorescein. All peptides were cyclized from the side chain to lysine to the N-terminus as previously described. Anesthetized C57BL6 mice had peptide administered at a dose of 10 mg/kg by oral gavage. After administration, mice were removed from isoflurane. At various time points, blood samples were taken by orbital bleeding as previously described. Peaks were normalized to a 15 minute time point from mice that had peptide administered by IV injection.
The following peptides were synthesized for oral administration: […](FAM) (SEQ ID NO: 14), […](FAM) (SEQ ID NO: 16), […](FAM)DK(biotin) (SEQ ID NO: 38), and […](FAM)DK(Palmitoleic acid) (SEQ ID NO: 15). All peptides were cyclized from the side chain to lysine to the N-terminus as previously described in Millward, S. W. et al. (2007) ACS Chem. Biol. 2:625. Anesthetized C57BL6 mice had peptide administered at a dose of 10 mgs/Kg by oral gavage. After administration, mice were removed from isoflurane. At various time points, blood samples were taken by orbital bleeding as previously described. Peaks were normalized to a 20 minute time point from mice that had peptide administered by IV injection. Area under the curve was analyzed by Graphpad 5.0.
In addition to accessing intracellular targets in cell culture, deriving a simple modification that would facilitate oral bioavailability of peptidic ligands would be greatly beneficial for therapeutic development. Intestinal absorption of both fatty acids and biotin is nearly 100% efficient. Zempleni, J. and Mock, D. M. (1999) The American Journal of Clinical Nutrition 69:504. […] Applicants synthesized a protease resistant peptide with the sequence […]-mod (designated SUPR peptide) (SEQ ID NO: 50), where A is N-methyl alanine, the peptide is cyclized from lysine to the N-terminus, and K(mod) is lysine with a modified sidechain including either biotin or palmitoleic acid. Palmitoleic acid is a monounsaturated fatty acid chosen for its ability to bind human serum albumin, and its low melting point allowing for more favorable solubility of conjugated peptides as compared to […] fatty acid conjugates. This peptide was administered to mice at a dose of 10 mg/kg by oral gavage. At various time points, blood was taken from the mice by orbital bleeding. After processing, fluorescence was quantified and compared to the maximum signal obtained by IV injection of peptide at the same dose.

(N-MeNva)ITWYEFVAGTK ([NMeNva]ITWYEFVAGTK(Biotin)-NH2; N-terminus assumed; SMILES CCC[C@H](NC)C(=O)N[C@H](C(=O)N[C@H](C(=O)N[C@@H](Cc1c[nH]c2ccccc12)C(=O)N[C@@H](Cc1ccc(O)cc1)C(=O)N[C@@H](CCC(=O)O)C(=O)N[C@@H](Cc1ccccc1)C(=O)N[C@H](C(=O)N[C@@H](C)C(=O)NCC(=O)N[C@H](C(=O)N[C@@H](CCCCNC(=O)CCCC[C@@H]1SC[C@@H]2NC(=O)N[C@@H]21)C(N)=O)[C@@H](C)O)C(C)C)[C@@H](C)O)[C@@H](C)CC) [Peptide 9]
Log Pe of peptide (biotinylated) [1]: −7.4 ± −0.1 | Log Pe of peptide [1]: −7.0 ± −0.1

O=C(O)CCCC[C@@H]1SC[C@@H]2NC(=O)N[C@@H]21 [biotin]
intestinal absorption efficiency ([2]; Zempleni and Mock (1999)): ~100% | oral bioavailability ([2]; as known in the field): ~100%

NNNNNDKLY(N-MeW)WEFL (Biotin-NNNNNDKLY[NMeW]WEFL) [Peptide 6]
Log Pe of peptide (biotinylated) [1]: −6.6 ± −0.1 | Log Pe of peptide [1]: >−9.0

MSQTKRLDDQLYWWEYL (Biotin-MSQTKRLDDQLYWWEYL) [Peptide 10]
Log Pe of peptide (biotinylated) [1]: −6.2 and −6.2 ± −0.0 | Log Pe [1]: −4.8 | fold increase in peptide delivery ([1]; reducible vs nonlabile biotin conjugate): 16 fold | Log Pe of peptide [1]: −8.4 ± −0.1

CSCC[C@H](N)C(=O)N[C@@H](Cc1ccccc1)C(=O)N[C@@H](Cc1ccc(O)cc1)C(=O)N(C)[C@@H](C)C(=O)N[C@@H](Cc1ccc(O)cc1)C(=O)N[C@@H](CCC(=O)O)C(=O)N[C@@H](Cc1ccc(O)cc1)C(=O)N(C)[C@@H](C)C(=O)N[C@@H](CCC(N)=O)C(=O)N[C@@H](Cc1c[nH]c2ccccc12)C(=O)N[C@@H](CO)C(=O)N[C@@H](CCCCN)C(N)=O [linSUPR]
half-life (Human serum digests): 972 s

MFYAYEYAQWSK
Cyc t1/2 (chymotrypsin): <12 s | Lin t1/2 (chymotrypsin): <12 s | Cyc t1/2 (proteinase K): <12 s | Lin t1/2 (proteinase K): <12 s

MITWYEFVAGTK [reference compound]
Cyc t1/2 (chymotrypsin): 126 s | Lin t1/2 (chymotrypsin): 19.8 s | Cyc t1/2 (proteinase K): 60 s | Lin t1/2 (proteinase K): <12 s

MITWYEFVAGTK [Peptide 7]
Log Pe of peptide (biotinylated) [1]: −6.6 ± −0.1 | Log Pe of peptide [1]: −7.8 ± −0.1

MRLVWIVRSRHFGPRLRMAK (MRLVWIVRSRHFGPRLRMAK(Biotin)-NH2; N-terminus assumed; SMILES CC[C@H](C)[C@H](NC(=O)[C@H](Cc1c[nH]c2ccccc12)NC(=O)[C@@H](NC(=O)[C@H](CC(C)C)NC(=O)[C@H](CCCNC(=N)N)NC(=O)[C@@H](N)CCSC)C(C)C)C(=O)N[C@H](C(=O)N[C@@H](CCCNC(=N)N)C(=O)N[C@@H](CO)C(=O)N[C@@H](CCCNC(=N)N)C(=O)N[C@@H](Cc1c[nH]cn1)C(=O)N[C@@H](Cc1ccccc1)C(=O)NCC(=O)N1CCC[C@H]1C(=O)N[C@@H](CCCNC(=N)N)C(=O)N[C@@H](CC(C)C)C(=O)N[C@@H](CCCNC(=N)N)C(=O)N[C@@H](CCSC)C(=O)N[C@@H](C)C(=O)N[C@@H](CCCCNC(=O)CCCC[C@@H]1SC[C@@H]2NC(=O)N[C@@H]21)C(N)=O)C(C)C) [Peptide 11]
Log Pe of peptide (biotinylated) [1]: −6.0 ± −0.1

CC[C@H](C)[C@H](NC(=O)[C@@H](N)CCSC)C(=O)N[C@H](C(=O)N[C@@H](Cc1c[nH]c2ccccc12)C(=O)N[C@@H](Cc1ccc(O)cc1)C(=O)N[C@@H](CCC(=O)O)C(=O)N[C@@H](Cc1ccccc1)C(=O)N[C@H](C(=O)N[C@@H](C)C(=O)NCC(=O)N[C@H](C(=O)N[C@@H](CCCCN)C(N)=O)[C@@H](C)O)C(C)C)[C@@H](C)O [linGIBP, reference compound] (H-MITWYEFVAGTK-NH2)
half-life (Human serum digests): ~504 s

Cyclo-MITWYEFVAGTK (not fully specified (C-terminus, bridges); printed as Cyclo-MITWYEFVAGTK; also: cyclized, ring closure not given here) [Peptide 8]
Log Pe of peptide (biotinylated) [1]: −6.5 and −6.5 ± −0.0 | Log Pe [1]: −5.9 | Log Pe of peptide [1]: −8.2 ± −0.2

CSCC[C@@H]1NC(=O)CCCC(=O)NCCCC[C@@H](C(=O)N[C@@H](CCCCNC(=O)c2ccc3c(c2)C(=O)OC32c3ccc(O)cc3Oc3cc(O)ccc32)C(=O)N[C@H](CCCCNC(=O)CCCC[C@@H]2SC[C@@H]3NC(=O)N[C@@H]32)C(=O)O)NC(=O)[C@H](CO)NC(=O)[C@H](Cc2c[nH]c3ccccc23)NC(=O)[C@H](CCC(N)=O)NC(=O)[C@H](C)N(C)C(=O)[C@H](Cc2ccc(O)cc2)NC(=O)[C@H](CCC(=O)O)NC(=O)[C@H](Cc2ccc(O)cc2)NC(=O)[C@H](C)N(C)C(=O)[C@H](Cc2ccc(O)cc2)NC(=O)[C@H](Cc2ccccc2)NC1=O [biotinylated peptide] (MFY[NMeA]YEY[NMeA]QWSKK(5FAM)[dK](Biotin)-OH; linker N-12 via Glutaryl; C-terminus assumed)
bioavailability ([3]; 10 mg/kg): 9.4% | time of maximal uptake ([3]; po): 3 h | oral uptake efficiency ([3]; po, 10 mg/kg): 6.4%
